Columns and labels:
[1] = molecular target: full-length ectodomains (EC1 to EC5) of mouse E-cadherin, wild type (mouse); test: high-speed atomic force microscopy
[2] = molecular target: mouse E-cadherin full-length ectodomains, W2A mutant (mouse); test: high-speed atomic force microscopy

stoichiometry N [1]	share of the observed dimers that are S-shaped [2]	share of the observed dimers that are cross-shaped (X-like dimer) [2]	Substance
2	–	–	full-length ectodomains (EC1 to EC5) of mouse E-cadherin, wild type (domain or fragment)
–	45%	20%	mouse E-cadherin full-length ectodomains, W2A mutant (domain or fragment)
